From publication doi:10.1101/2022.07.04.498669

Biological target: paDXPS as measured by native mass spectrometry (Pseudomonas aeruginosa) (UniProt Q9KGU7)
Assay: native MS

## paDXPS as measured by native mass spectrometry (from UniProt Q9KGU7 1-627) (enzyme)
  stoichiometry N: 2
